Experiments:
[1] = biological target: T1, MAGI-1 PDZ3 domain (Rattus norvegicus (Rat), UniProt Q4L1J4 846-921, limits assumed); test: ligand binding assay with purified PDZ domain
[2] = biological target: T2, MAGI-1 PDZ1 domain (Rattus norvegicus (Rat), UniProt Q4L1J4 475-542, limits assumed); test: ligand binding assay with purified MAGI-1 PDZ1
T2 construct: also called MAGI-PDZ-1

[3] = biological target: T1, MAGI-1 PDZ3 domain; test: ligand binding assay with purified MAGI-1 PDZ3
[4] = biological target: T2, MAGI-1 PDZ1 domain; test: ligand binding assay with purified PDZ domain

T2 sequence (Q4L1J4 475-542 limits assumed): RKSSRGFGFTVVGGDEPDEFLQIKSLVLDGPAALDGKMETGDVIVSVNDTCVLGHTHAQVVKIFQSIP
T1 sequence (Q4L1J4 846-921 limits assumed): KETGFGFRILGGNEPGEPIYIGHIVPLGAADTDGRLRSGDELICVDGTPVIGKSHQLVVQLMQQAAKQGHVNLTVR

Binder	binding result [1]	Kd [2] [nM]	Kd [3] [nM]	binding result [4]
GRKKRRQRRRPPQSRTRRETQL (also called TAT-E6) [TAT-HPV E6]	no binding	15		
GRKKRRQRRRPPQGGKKKETLV (also called TAT-PDZ1 peptide) [TAT-NET1]	no binding	28		
GRKKRRQRRRPPQYKTDGITVV (also called TAT-PDZ3 peptide) [TAT-CAR^Ex8]		23	4	
GRKKRRQRRRPPQAQSQAGSLV (also called TAT-PDZ3 peptide) [TAT-ESAM]			17	no binding
